# Target: human angiotensin-converting enzyme 2 receptor (hACE2) (human) (UniProt Q9BYF1)
# Assay: SPR
substance,measurement,value
S-2P (prefusion-stabilised SARS-CoV-2 spike with K986P and V987P) (domain or fragment),Kd,0.2 nM
